According to article PMC8575881, “Structure and activation mechanism of the hexameric plasma membrane H^+-ATPase” (Nature Communications, 2021):

Experiments:
[1] = target: the molecule itself; assay: SEC + native gel or EMSA; gel filtration of Pma1-ΔC22 by the protocol of wild-type Pma1; fractions 10-16 ml on native PAGE
[2] = target: the molecule itself; assay: SEC + native gel or EMSA; Superdex 200 10/300 in 20 mM HEPES pH 7.4, 150 mM NaCl; native gel electrophoresis
[3] = target: the molecule itself; assay: SEC + native gel or EMSA; Superose 6 10/300 Increase in 20 mM HEPES pH 7.4, 150 mM NaCl, 0.003% LMNG, 0.0003% CHS, 1 mM MgCl2; native PAGE 4-20%, Tris-glycine pH 8.8

B1: Pma1-ΔC22, helix-i truncated Pma1 with a C-terminal FLAG tag (domain or fragment, S. cerevisiae, UniProt P05030 1-896, looked up)
chain: MTDTSSSSSSSSASSVSAHQPTQEKPAKTYDDAASESSDDDDIDALIEELQSNHGVDDEDSDNDGPVAAGEARPVPEEYLQTDPSYGLTSDEVLKRRKKYGLNQMADEKESLVVKFVMFFVGPIQFVMEAAAILAAGLSDWVDFGVICGLLMLNAGVGFVQEFQAGSIVDELKKTLANTAVVIRDGQLVEIPANEVVPGDILQLEDGTVIPTDGRIVTEDCFLQIDQSAITGESLAVDKHYGDQTFSSSTVKRGEGFMVVTATGDNTFVGRAAALVNKAAGGQGHFTEVLNGIGIILLVLVIATLLLVWTACFYRTNGIVRILRYTLGITIIGVPVGLPAVVTTTMAVGAAYLAKKQAIVQKLSAIESLAGVEILCSDKTGTLTKNKLSLHEPYTVEGVSPDDLMLTACLAASRKKKGLDAIDKAFLKSLKQYPKAKDALTKYKVLEFHPFDPVSKKVTAVVESPEGERIVCVKGAPLFVLKTVEEDHPIPEDVHENYENKVAELASRGFRALGVARKRGEGHWEILGVMPCMDPPRDDTAQTVSEARHLGLRVKMLTGDAVGIAKETCRQLGLGTNIYNAERLGLGGGGDMPGSELADFVENADGFAEVFPQHKYRVVEILQNRGYLVAMTGDGVNDAPSLKKADTGIAVEGATDAARSAADIVFLAPGLSAIIDALKTSRQIFHRMYSYVVYRIALSLHLEIFLGLWIAILDNSLDIDLIVFIAIFADVATLAIAYDNAPYSPKPVKWNLPRLWGMSIILGIVLAIGSWITLTTMFLPKGGIIQNFGAMNGIMFLQISLTENWLIFITRAAGPFWSSIPSWQLAGAVFAVDIIATMFTLFGWWSENWTDIVTVVRVWIWSIGIFCVLGGFYYEMSTSEAFDRLMNGKPMKEKKS
notes: Plasma membrane H+-ATPase Pma1, S. cerevisiae, lacking helix-i, the last 22 residues (T897-T918) of the 918-residue protein; also called Pma1-△C22; source: S. cerevisiae BY4742 transformed with the PRS423 vector; purified as wild-type Pma1 (anti-FLAG M2, gel filtration)
B1: binds [1].

B2: SUMO-tagged helix-i (C-terminal 22 residues of Pma1) with an N-terminal 6xHis-SUMO tag and TEV site (domain or fragment, S. cerevisiae, UniProt P05030 897-918, looked up)
chain: TRSVEDFMAAMQRVSTQHEKET
notes: Pma1, S. cerevisiae, helix-i, the C-terminal 22 amino acids (T897-T918); A TEV protease cleavage site lies between the 6xHis-SUMO tag and the peptide; also called C-terminal helix-I peptide; C-tail helix-i; source: E. coli Rosetta (DE3), pET28a, purified (Ni-beads, Superdex 200 gel filtration); not shown: His6, N-terminal, kept; SUMO, N-terminal, kept
B2: binds [2].

B3: S. cerevisiae plasma membrane H+-ATPase Pma1, full length, with a C-terminal triple FLAG epitope (enzyme, UniProt P05030 1-918, looked up)
chain: MTDTSSSSSSSSASSVSAHQPTQEKPAKTYDDAASESSDDDDIDALIEELQSNHGVDDEDSDNDGPVAAGEARPVPEEYLQTDPSYGLTSDEVLKRRKKYGLNQMADEKESLVVKFVMFFVGPIQFVMEAAAILAAGLSDWVDFGVICGLLMLNAGVGFVQEFQAGSIVDELKKTLANTAVVIRDGQLVEIPANEVVPGDILQLEDGTVIPTDGRIVTEDCFLQIDQSAITGESLAVDKHYGDQTFSSSTVKRGEGFMVVTATGDNTFVGRAAALVNKAAGGQGHFTEVLNGIGIILLVLVIATLLLVWTACFYRTNGIVRILRYTLGITIIGVPVGLPAVVTTTMAVGAAYLAKKQAIVQKLSAIESLAGVEILCSDKTGTLTKNKLSLHEPYTVEGVSPDDLMLTACLAASRKKKGLDAIDKAFLKSLKQYPKAKDALTKYKVLEFHPFDPVSKKVTAVVESPEGERIVCVKGAPLFVLKTVEEDHPIPEDVHENYENKVAELASRGFRALGVARKRGEGHWEILGVMPCMDPPRDDTAQTVSEARHLGLRVKMLTGDAVGIAKETCRQLGLGTNIYNAERLGLGGGGDMPGSELADFVENADGFAEVFPQHKYRVVEILQNRGYLVAMTGDGVNDAPSLKKADTGIAVEGATDAARSAADIVFLAPGLSAIIDALKTSRQIFHRMYSYVVYRIALSLHLEIFLGLWIAILDNSLDIDLIVFIAIFADVATLAIAYDNAPYSPKPVKWNLPRLWGMSIILGIVLAIGSWITLTTMFLPKGGIIQNFGAMNGIMFLQISLTENWLIFITRAAGPFWSSIPSWQLAGAVFAVDIIATMFTLFGWWSENWTDIVTVVRVWIWSIGIFCVLGGFYYEMSTSEAFDRLMNGKPMKEKKSTRSVEDFMAAMQRVSTQHEKET
notes: Plasma membrane H+-ATPase Pma1, S. cerevisiae, 918-residue protein, full length; Co-purified with endogenous lipids; residues 1-110 are disordered in the structures; The FLAG tag is not reported to be removed; also called Pma1-FL; wild-type Pma1; source: endogenous, tagged in the genome of yeast strain BY4742
With B3 the “stoichiometry N” value [3] was 6.
